In paper PMC6858569:

Biological target: mouse TRPV3 with the single residue substitution Y564A (mouse)
Assay: cryo-EM structure

stoichiometry N: 4
Substance: mouse TRPV3 with the single residue substitution Y564A (natural protein)
